The target in one test is T1, CRF1R receptor (UniProt P34998 24-415, limits assumed).
T1 sequence (looked up): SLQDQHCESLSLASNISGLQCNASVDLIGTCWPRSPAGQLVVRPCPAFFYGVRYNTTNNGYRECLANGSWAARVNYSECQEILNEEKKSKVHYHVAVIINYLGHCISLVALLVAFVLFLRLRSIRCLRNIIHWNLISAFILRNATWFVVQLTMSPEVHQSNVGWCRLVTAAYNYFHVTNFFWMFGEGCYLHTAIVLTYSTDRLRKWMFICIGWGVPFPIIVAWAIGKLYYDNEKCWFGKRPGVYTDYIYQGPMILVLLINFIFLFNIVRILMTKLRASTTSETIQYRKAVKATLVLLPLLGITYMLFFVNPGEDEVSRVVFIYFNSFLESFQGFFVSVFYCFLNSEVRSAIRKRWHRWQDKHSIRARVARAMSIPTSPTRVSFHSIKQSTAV
In words: cell-based or functional assay.

For test [1], the target named is human corticotropin-releasing factor 2a (CRF2a receptor) (human), Q13324. The test can be described thus: cell-based or functional assay.

As a reminder, the EC50 is the midpoint of the concentration-response curve. High values mean a need for much substance, low ones an effect from little substance.

*1 amine or outer side, *2 acyl side, *3 side chain or, on linkers, in order; H or OH if unused. Side-chain parts run from the residue outwards. [ ]: non-standard residue; d: D form. The star is where a group is joined. C20 diacid = O=C(O)CCCCCCCCCCCCCCCCCCC(=O)*; γGlu = O=C(O)[C@H](CCC(=O)[*:2])N[*:1]; Myristoyl = CCCCCCCCCCCCCC(=O)*; Lauroyl = CCCCCCCCCCCC(=O)*; Decanoyl = CCCCCCCCCC(=O)*; Api = NC1(C(=O)O)CCNCC1; Pentanoyl = CCCCC(=O)*; Aib = CC(C)(N)C(=O)O

human corticotropin-releasing factor 2a (CRF2a receptor) (human), Q13324, sequence (Q13324 20-411): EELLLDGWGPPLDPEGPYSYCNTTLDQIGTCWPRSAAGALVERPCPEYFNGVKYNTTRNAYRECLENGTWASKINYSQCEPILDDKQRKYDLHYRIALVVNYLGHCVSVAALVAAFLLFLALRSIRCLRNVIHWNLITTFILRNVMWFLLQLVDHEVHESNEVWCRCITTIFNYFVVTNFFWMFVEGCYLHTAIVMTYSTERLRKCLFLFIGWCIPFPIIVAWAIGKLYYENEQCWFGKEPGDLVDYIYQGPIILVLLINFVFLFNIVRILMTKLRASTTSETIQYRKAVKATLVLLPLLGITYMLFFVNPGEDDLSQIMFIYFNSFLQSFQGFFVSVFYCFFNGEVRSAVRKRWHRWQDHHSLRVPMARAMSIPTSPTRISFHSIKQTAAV

B1: SEQ ID NO 224 (peptide)
peptide: Lauroyl-VLSLD[dV]PIKLK([γGlu-C20 diacid])KILLEQEKQKKQREQAETN[Aib]QILAQV-NH2
SMILES: CCCCCCCCCCCC(=O)N[C@H](C(=O)N[C@@H](CC(C)C)C(=O)N[C@@H](CO)C(=O)N[C@@H](CC(C)C)C(=O)N[C@@H](CC(=O)O)C(=O)N[C@@H](C(=O)N1CCC[C@H]1C(=O)N[C@H](C(=O)N[C@@H](CCCCN)C(=O)N[C@@H](CC(C)C)C(=O)N[C@@H](CCCCNC(=O)CC[C@H](NC(=O)CCCCCCCCCCCCCCCCCCC(=O)O)C(=O)O)C(=O)N[C@@H](CCCCN)C(=O)N[C@H](C(=O)N[C@@H](CC(C)C)C(=O)N[C@@H](CC(C)C)C(=O)N[C@@H](CCC(=O)O)C(=O)N[C@@H](CCC(N)=O)C(=O)N[C@@H](CCC(=O)O)C(=O)N[C@@H](CCCCN)C(=O)N[C@@H](CCC(N)=O)C(=O)N[C@@H](CCCCN)C(=O)N[C@@H](CCCCN)C(=O)N[C@@H](CCC(N)=O)C(=O)N[C@@H](CCCNC(=N)N)C(=O)N[C@@H](CCC(=O)O)C(=O)N[C@@H](CCC(N)=O)C(=O)N[C@@H](C)C(=O)N[C@@H](CCC(=O)O)C(=O)N[C@H](C(=O)N[C@@H](CC(N)=O)C(=O)NC(C)(C)C(=O)N[C@@H](CCC(N)=O)C(=O)N[C@H](C(=O)N[C@@H](CC(C)C)C(=O)N[C@@H](C)C(=O)N[C@@H](CCC(N)=O)C(=O)N[C@H](C(N)=O)C(C)C)[C@@H](C)CC)[C@@H](C)O)[C@@H](C)CC)[C@@H](C)CC)C(C)C)C(C)C
In the case of B1, in the test with CRF1R receptor, the “EC50” value came out at 39.5 nM and the “Emax (% I)” value was 66%. This molecule also came in with an EC50 [nM] (cAMP) in test [1] of 0.07 nM.

B2: SEQ ID NO 225 (peptide)
peptide: Myristoyl-VLSLD[dV]PIKLK([γGlu-C20 diacid])KILLEQEKQKKQREQAETN[Aib]QILAQV-NH2
SMILES: CCCCCCCCCCCCCC(=O)N[C@H](C(=O)N[C@@H](CC(C)C)C(=O)N[C@@H](CO)C(=O)N[C@@H](CC(C)C)C(=O)N[C@@H](CC(=O)O)C(=O)N[C@@H](C(=O)N1CCC[C@H]1C(=O)N[C@H](C(=O)N[C@@H](CCCCN)C(=O)N[C@@H](CC(C)C)C(=O)N[C@@H](CCCCNC(=O)CC[C@H](NC(=O)CCCCCCCCCCCCCCCCCCC(=O)O)C(=O)O)C(=O)N[C@@H](CCCCN)C(=O)N[C@H](C(=O)N[C@@H](CC(C)C)C(=O)N[C@@H](CC(C)C)C(=O)N[C@@H](CCC(=O)O)C(=O)N[C@@H](CCC(N)=O)C(=O)N[C@@H](CCC(=O)O)C(=O)N[C@@H](CCCCN)C(=O)N[C@@H](CCC(N)=O)C(=O)N[C@@H](CCCCN)C(=O)N[C@@H](CCCCN)C(=O)N[C@@H](CCC(N)=O)C(=O)N[C@@H](CCCNC(=N)N)C(=O)N[C@@H](CCC(=O)O)C(=O)N[C@@H](CCC(N)=O)C(=O)N[C@@H](C)C(=O)N[C@@H](CCC(=O)O)C(=O)N[C@H](C(=O)N[C@@H](CC(N)=O)C(=O)NC(C)(C)C(=O)N[C@@H](CCC(N)=O)C(=O)N[C@H](C(=O)N[C@@H](CC(C)C)C(=O)N[C@@H](C)C(=O)N[C@@H](CCC(N)=O)C(=O)N[C@H](C(N)=O)C(C)C)[C@@H](C)CC)[C@@H](C)O)[C@@H](C)CC)[C@@H](C)CC)C(C)C)C(C)C
For B2, in the test with CRF1R receptor, the “EC50” value was found to be 73.4 nM and the “Emax (% I)” value stood at 70%. The same molecule displayed an EC50 [nM] (cAMP) in test [1] of 0.09 nM.

B3: SEQ ID NO 222 (peptide)
peptide: Pentanoyl-VLSLD[dV]PIKLK([γGlu-C20 diacid])KILLEQEKQKAQREQAETN[Aib]QILAQV-NH2
SMILES: CCCCC(=O)N[C@H](C(=O)N[C@@H](CC(C)C)C(=O)N[C@@H](CO)C(=O)N[C@@H](CC(C)C)C(=O)N[C@@H](CC(=O)O)C(=O)N[C@@H](C(=O)N1CCC[C@H]1C(=O)N[C@H](C(=O)N[C@@H](CCCCN)C(=O)N[C@@H](CC(C)C)C(=O)N[C@@H](CCCCNC(=O)CC[C@H](NC(=O)CCCCCCCCCCCCCCCCCCC(=O)O)C(=O)O)C(=O)N[C@@H](CCCCN)C(=O)N[C@H](C(=O)N[C@@H](CC(C)C)C(=O)N[C@@H](CC(C)C)C(=O)N[C@@H](CCC(=O)O)C(=O)N[C@@H](CCC(N)=O)C(=O)N[C@@H](CCC(=O)O)C(=O)N[C@@H](CCCCN)C(=O)N[C@@H](CCC(N)=O)C(=O)N[C@@H](CCCCN)C(=O)N[C@@H](C)C(=O)N[C@@H](CCC(N)=O)C(=O)N[C@@H](CCCNC(=N)N)C(=O)N[C@@H](CCC(=O)O)C(=O)N[C@@H](CCC(N)=O)C(=O)N[C@@H](C)C(=O)N[C@@H](CCC(=O)O)C(=O)N[C@H](C(=O)N[C@@H](CC(N)=O)C(=O)NC(C)(C)C(=O)N[C@@H](CCC(N)=O)C(=O)N[C@H](C(=O)N[C@@H](CC(C)C)C(=O)N[C@@H](C)C(=O)N[C@@H](CCC(N)=O)C(=O)N[C@H](C(N)=O)C(C)C)[C@@H](C)CC)[C@@H](C)O)[C@@H](C)CC)[C@@H](C)CC)C(C)C)C(C)C
Consider B3, for which, in the test with CRF1R receptor, a half-maximal response (EC50) required 196 nM and the “Emax (% I)” value came to 50%. Further, the EC50 [nM] (cAMP) in test [1] is 0.14 nM.

B4: SEQ ID NO 227 (peptide)
peptide: Ac-IVLSLD[dV]PIGLK([γGlu-C20 diacid])KILLEQEKQKKQREQAETN[Api]QILAQV-NH2
SMILES: CC[C@H](C)[C@H](NC(C)=O)C(=O)N[C@H](C(=O)N[C@@H](CC(C)C)C(=O)N[C@@H](CO)C(=O)N[C@@H](CC(C)C)C(=O)N[C@@H](CC(=O)O)C(=O)N[C@@H](C(=O)N1CCC[C@H]1C(=O)N[C@H](C(=O)NCC(=O)N[C@@H](CC(C)C)C(=O)N[C@@H](CCCCNC(=O)CC[C@H](NC(=O)CCCCCCCCCCCCCCCCCCC(=O)O)C(=O)O)C(=O)N[C@@H](CCCCN)C(=O)N[C@H](C(=O)N[C@@H](CC(C)C)C(=O)N[C@@H](CC(C)C)C(=O)N[C@@H](CCC(=O)O)C(=O)N[C@@H](CCC(N)=O)C(=O)N[C@@H](CCC(=O)O)C(=O)N[C@@H](CCCCN)C(=O)N[C@@H](CCC(N)=O)C(=O)N[C@@H](CCCCN)C(=O)N[C@@H](CCCCN)C(=O)N[C@@H](CCC(N)=O)C(=O)N[C@@H](CCCNC(=N)N)C(=O)N[C@@H](CCC(=O)O)C(=O)N[C@@H](CCC(N)=O)C(=O)N[C@@H](C)C(=O)N[C@@H](CCC(=O)O)C(=O)N[C@H](C(=O)N[C@@H](CC(N)=O)C(=O)NC1(C(=O)N[C@@H](CCC(N)=O)C(=O)N[C@H](C(=O)N[C@@H](CC(C)C)C(=O)N[C@@H](C)C(=O)N[C@@H](CCC(N)=O)C(=O)N[C@H](C(N)=O)C(C)C)[C@@H](C)CC)CCNCC1)[C@@H](C)O)[C@@H](C)CC)[C@@H](C)CC)C(C)C)C(C)C
For B4, in the test with CRF1R receptor, the “EC50” value stood at 1.74 nM and the “Emax (% I)” value was 97%. Besides, the EC50 [nM] (cAMP) in test [1] is 0.2 nM.

B5: SEQ ID NO 223 (peptide)
peptide: Decanoyl-VLSLD[dV]PIKLK([γGlu-C20 diacid])KILLEQEKQKKQREQAETN[Aib]QILAQV-NH2
SMILES: CCCCCCCCCC(=O)N[C@H](C(=O)N[C@@H](CC(C)C)C(=O)N[C@@H](CO)C(=O)N[C@@H](CC(C)C)C(=O)N[C@@H](CC(=O)O)C(=O)N[C@@H](C(=O)N1CCC[C@H]1C(=O)N[C@H](C(=O)N[C@@H](CCCCN)C(=O)N[C@@H](CC(C)C)C(=O)N[C@@H](CCCCNC(=O)CC[C@H](NC(=O)CCCCCCCCCCCCCCCCCCC(=O)O)C(=O)O)C(=O)N[C@@H](CCCCN)C(=O)N[C@H](C(=O)N[C@@H](CC(C)C)C(=O)N[C@@H](CC(C)C)C(=O)N[C@@H](CCC(=O)O)C(=O)N[C@@H](CCC(N)=O)C(=O)N[C@@H](CCC(=O)O)C(=O)N[C@@H](CCCCN)C(=O)N[C@@H](CCC(N)=O)C(=O)N[C@@H](CCCCN)C(=O)N[C@@H](CCCCN)C(=O)N[C@@H](CCC(N)=O)C(=O)N[C@@H](CCCNC(=N)N)C(=O)N[C@@H](CCC(=O)O)C(=O)N[C@@H](CCC(N)=O)C(=O)N[C@@H](C)C(=O)N[C@@H](CCC(=O)O)C(=O)N[C@H](C(=O)N[C@@H](CC(N)=O)C(=O)NC(C)(C)C(=O)N[C@@H](CCC(N)=O)C(=O)N[C@H](C(=O)N[C@@H](CC(C)C)C(=O)N[C@@H](C)C(=O)N[C@@H](CCC(N)=O)C(=O)N[C@H](C(N)=O)C(C)C)[C@@H](C)CC)[C@@H](C)O)[C@@H](C)CC)[C@@H](C)CC)C(C)C)C(C)C
As to B5, in the test with CRF1R receptor, the “EC50” value came to 152 nM and the “Emax (% I)” value was 58%. The same molecule had an EC50 [nM] (cAMP) in test [1] of 0.08 nM.

B6: SEQ ID NO 226 (peptide)
peptide: Ac-IVLSLD[dV]PIGLK([γGlu-C20 diacid])KILLEQEKQKKQREQAETN[Aib]QILAQV-NH2
SMILES: CC[C@H](C)[C@H](NC(C)=O)C(=O)N[C@H](C(=O)N[C@@H](CC(C)C)C(=O)N[C@@H](CO)C(=O)N[C@@H](CC(C)C)C(=O)N[C@@H](CC(=O)O)C(=O)N[C@@H](C(=O)N1CCC[C@H]1C(=O)N[C@H](C(=O)NCC(=O)N[C@@H](CC(C)C)C(=O)N[C@@H](CCCCNC(=O)CC[C@H](NC(=O)CCCCCCCCCCCCCCCCCCC(=O)O)C(=O)O)C(=O)N[C@@H](CCCCN)C(=O)N[C@H](C(=O)N[C@@H](CC(C)C)C(=O)N[C@@H](CC(C)C)C(=O)N[C@@H](CCC(=O)O)C(=O)N[C@@H](CCC(N)=O)C(=O)N[C@@H](CCC(=O)O)C(=O)N[C@@H](CCCCN)C(=O)N[C@@H](CCC(N)=O)C(=O)N[C@@H](CCCCN)C(=O)N[C@@H](CCCCN)C(=O)N[C@@H](CCC(N)=O)C(=O)N[C@@H](CCCNC(=N)N)C(=O)N[C@@H](CCC(=O)O)C(=O)N[C@@H](CCC(N)=O)C(=O)N[C@@H](C)C(=O)N[C@@H](CCC(=O)O)C(=O)N[C@H](C(=O)N[C@@H](CC(N)=O)C(=O)NC(C)(C)C(=O)N[C@@H](CCC(N)=O)C(=O)N[C@H](C(=O)N[C@@H](CC(C)C)C(=O)N[C@@H](C)C(=O)N[C@@H](CCC(N)=O)C(=O)N[C@H](C(N)=O)C(C)C)[C@@H](C)CC)[C@@H](C)O)[C@@H](C)CC)[C@@H](C)CC)C(C)C)C(C)C
As to B6, in the test with CRF1R receptor, a half-maximal effect (EC50) was put at 42.1 nM and the “Emax (% I)” value was determined as 82%. Moreover, the EC50 [nM] (cAMP) in test [1] turned out to be 0.18 nM.

(Values after patent US20260001928A1 (CORTERIA PHARMACEUTICALS, priority 2022, published 2026).)
